Molecular target: T1, Drosha-Quad dsRBD (human, UniProt Q9NRR4 1259-1337, K1262I;I1317K;Q1318K;E1321K)
T1 sequence: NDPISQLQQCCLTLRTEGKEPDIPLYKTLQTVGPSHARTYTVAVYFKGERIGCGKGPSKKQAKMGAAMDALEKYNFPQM
Experiment: EMSA; 50 mM sodium cacodylate pH 6.0, 50 mM KCl, 5% glycerol, 1 mM DTT, 0.1 mg/mL BSA, 0.1 mg/mL herring sperm DNA, 30 min at room temperature; 10% native gel at 4 C; Hill fit
Details: protein: recombinant, tags: pET-47b(+) vector

[1] = label: 5'-32P top strand, blunt

B1: pri-mir-16-1 (structured_RNA)
RNA: GGGUGAUAGCAAUGUCAGCAGUGCCUUAGCAGCACGUAAAUAUUGGCGUUAAGAUUCUAAAAUUAUCUCCAGUAUUAACUGUGCUGCUGAAGUAAGGUUGACCAUACUCUAC
Kd (label: 32P (5' end implied), hairpin, stem region contains 39 bp): 2.8 ± 0.1 µM

B2: ds22 (dsRNA)
RNA 1: GUCAGCAGUGCCUUAGCAGCAC
RNA 2: GUGCUGCUAAGGCACUGCUGAC
Kd [1]: 13.4 ± 0.4 µM

B3: ds33 (dsRNA)
RNA 1: GGUCAGCAGUGCCUUAGCAGCACGUAAAUAUGG
RNA 2: CCAUAUUUACGUGCUGCUAAGGCACUGCUGACC
Kd [1]: 7.8 ± 0.2 µM

B4: ds44 (dsRNA)
RNA 1: GGUCAGCAGUGCCUUAGCAGCACGUAAAUAUUGGCGUUAAGACC
RNA 2: GGUCUUAACGCCAAUAUUUACGUGCUGCUAAGGCACUGCUGACC
Kd [1]: 6.5 ± 0.6 µM

— publication PMC5549741, “Engineering double-stranded RNA binding activity into the Drosha double-stranded RNA binding domain results in a loss of microRNA processing function”
